The source of these data is patent US20230235013A1 (MABSOLVE, published 2023).

Substitutions are numbered along the chain they refer to. Names and notes keep the numbering of the source.

The assay has as its target T1, Histidine-tagged recombinant human FcγRI (CD64) (human, UniProt P12314 16-288).
T1 construct: bought; also called Sino Biological Cat. No. 12056-H08H
In words: SPR, culture supernatant, captured His-FcγRI.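 Also: biacore T200 SPR at 25 °C, anti-His capture, supernatants of HEK293 cells expressing IgG1 Fc variants injected 1 min, reference-subtracted response read 55 s after injection start.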 For orientation: Surface plasmon resonance follows binding to a sensor surface in real time, without labels.

B1: anti-CD20 human IgG1 L234H/L235T/G236R (antibody)
heavy: QVQLQQPGAELVKPGASVKMSCKASGYTFTSYNMHWVKQTPGRGLEWIGAIYPGNGDTSYNQKFKGKATLTADKSSSTAYMQLSSLTSEDSAVYYCARSTYYGGDWYFNVWGAGTTVTVSSASTKGPSVFPLAPSSKSTSGGTAALGCLVKDYFPEPVTVSWNSGALTSGVHTFPAVLQSSGLYSLSSVVTVPSSSLGTQTYICNVNHKPSNTKVDKKVEPKSCDKTHTCPPCPAPEHTRGPSVFLFPPKPKDTLMISRTPEVTCVVVDVSHEDPEVKFNWYVDGVEVHNAKTKPREEQYNSTYRVVSVLTVLHQDWLNGKEYKCKVSNKALPAPIEKTISKAKGQPREPQVYTLPPSRDELTKNQVSLTCLVKGFYPSDIAVEWESNGQPENNYKTTPPVLDSDGSFFLYSKLTVDKSRWQQGNVFSCSVMHEALHNHYTQKSLSLSPGK
light: QIVLSQSPAILSASPGEKVTMTCRASSSVSYIHWFQQKPGSSPKPWIYATSNLASGVPVRFSGSGSGTSYSLTISRVEAEDAATYYCQQWTSNPPTFGGGTKLEIKRTVAAPSVFIFPPSDEQLKSGTASVVCLLNNFYPREAKVQWKVDNALQSGNSQESVTEQDSKDSTYSLSSTLTLSKADYEKHKVYACEVTHQGLSSPVTKSFNRGEC
notes: also called 1-75; copies: 2 + 2
Regarding B1, the Mean binding response is 44.9 RU.

B2: anti-CD20 human IgG1 L234N/L235A/G236R (antibody)
heavy: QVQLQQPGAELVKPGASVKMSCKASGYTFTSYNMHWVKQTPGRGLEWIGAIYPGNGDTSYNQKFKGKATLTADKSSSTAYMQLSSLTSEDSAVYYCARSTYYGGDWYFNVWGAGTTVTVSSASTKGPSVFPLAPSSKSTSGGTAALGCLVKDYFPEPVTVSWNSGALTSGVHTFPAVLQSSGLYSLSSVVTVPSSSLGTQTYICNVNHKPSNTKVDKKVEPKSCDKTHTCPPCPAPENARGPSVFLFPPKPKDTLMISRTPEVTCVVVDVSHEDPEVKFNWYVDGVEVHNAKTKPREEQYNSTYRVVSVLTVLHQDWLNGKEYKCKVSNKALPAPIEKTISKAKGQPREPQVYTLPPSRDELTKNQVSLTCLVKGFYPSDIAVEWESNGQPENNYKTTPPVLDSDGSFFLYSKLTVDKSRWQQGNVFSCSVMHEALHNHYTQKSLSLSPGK
light: B1 light
notes: also called 1-92; copies: 2 + 2
For B2, the Mean binding response came out at 22.3 RU.

B3: anti-CD20 human IgG1 L234Q/L235G/G236R (antibody)
heavy: B1 heavy with H238Q, T239G
light: B1 light
notes: also called 1-110; copies: 2 + 2
B3: the Mean binding response was found to be 28.1 RU.

B4: anti-CD20 human IgG1 L234Q/L235Q/G236R (antibody)
heavy: B1 heavy with H238Q, T239Q
light: B1 light
notes: also called 2-31; copies: 2 + 2
With B4, the Mean binding response was found to be 16.8 RU.

B5: anti-CD20 human IgG1 L234K/L235G/G236R (antibody)
heavy: B1 heavy with H238K, T239G
light: B1 light
notes: also called 1-80; copies: 2 + 2
B5: the Mean binding response came out at 27.4 RU.

B6: anti-CD20 human IgG1 L234H/L235V/G236R (antibody)
heavy: B1 heavy with T239V
light: B1 light
notes: also called 1-76; copies: 2 + 2
As for B6, the Mean binding response is 25.6 RU.

B7: anti-CD20 human IgG1 L234K/L235K/G236R (antibody)
heavy: B1 heavy with H238K, T239K
light: B1 light
notes: also called 1-83; copies: 2 + 2
With B7, the Mean binding response was determined as 37.6 RU.

B8: anti-CD20 human IgG1 L234K/G236R (antibody)
heavy: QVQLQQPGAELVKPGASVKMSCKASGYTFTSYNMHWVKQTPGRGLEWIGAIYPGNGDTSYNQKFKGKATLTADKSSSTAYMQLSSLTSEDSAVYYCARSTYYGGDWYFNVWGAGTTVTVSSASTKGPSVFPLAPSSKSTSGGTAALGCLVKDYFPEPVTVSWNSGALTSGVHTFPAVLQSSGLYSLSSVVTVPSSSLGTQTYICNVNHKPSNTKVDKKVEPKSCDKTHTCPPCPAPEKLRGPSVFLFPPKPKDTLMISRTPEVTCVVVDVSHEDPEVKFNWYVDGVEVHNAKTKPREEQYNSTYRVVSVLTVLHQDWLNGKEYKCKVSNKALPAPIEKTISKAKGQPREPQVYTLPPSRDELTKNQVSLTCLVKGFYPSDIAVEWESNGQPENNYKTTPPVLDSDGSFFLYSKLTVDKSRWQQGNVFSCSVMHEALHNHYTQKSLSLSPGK
light: B1 light
notes: also called 1-84; copies: 2 + 2
Take B8: the Mean binding response worked out at 31.2 RU.

B9: anti-CD20 human IgG1 L234N/G236R (antibody)
heavy: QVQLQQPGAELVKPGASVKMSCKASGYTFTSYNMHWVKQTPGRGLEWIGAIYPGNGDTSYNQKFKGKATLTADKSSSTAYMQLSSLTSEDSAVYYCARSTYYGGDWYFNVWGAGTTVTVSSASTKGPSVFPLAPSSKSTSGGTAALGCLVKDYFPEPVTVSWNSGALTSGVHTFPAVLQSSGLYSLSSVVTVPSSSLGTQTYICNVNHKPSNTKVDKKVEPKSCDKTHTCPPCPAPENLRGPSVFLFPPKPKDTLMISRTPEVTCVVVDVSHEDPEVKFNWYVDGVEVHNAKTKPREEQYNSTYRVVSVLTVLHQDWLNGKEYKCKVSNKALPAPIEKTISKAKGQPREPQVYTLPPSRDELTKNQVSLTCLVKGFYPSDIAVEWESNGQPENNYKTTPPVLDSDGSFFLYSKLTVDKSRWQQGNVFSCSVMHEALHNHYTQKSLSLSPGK
light: B1 light
notes: also called 1-99; copies: 2 + 2
For the molecule B9, the Mean binding response is 22.3 RU.

B10: anti-CD20 human IgG1 L234N/L235R/G236R (antibody)
heavy: B1 heavy with H238N, T239R
light: B1 light
notes: copies: 2 + 2
Turning to B10, the Mean binding response came out at 30.4 RU.

B11: anti-CD20 human IgG1 L234Q/L235K/G236R (antibody)
heavy: B1 heavy with H238Q, T239K
light: B1 light
notes: copies: 2 + 2
Regarding B11, the Mean binding response was found to be 26.9 RU.

B12: anti-CD20 human IgG1 L234K/L235A/G236R (antibody)
heavy: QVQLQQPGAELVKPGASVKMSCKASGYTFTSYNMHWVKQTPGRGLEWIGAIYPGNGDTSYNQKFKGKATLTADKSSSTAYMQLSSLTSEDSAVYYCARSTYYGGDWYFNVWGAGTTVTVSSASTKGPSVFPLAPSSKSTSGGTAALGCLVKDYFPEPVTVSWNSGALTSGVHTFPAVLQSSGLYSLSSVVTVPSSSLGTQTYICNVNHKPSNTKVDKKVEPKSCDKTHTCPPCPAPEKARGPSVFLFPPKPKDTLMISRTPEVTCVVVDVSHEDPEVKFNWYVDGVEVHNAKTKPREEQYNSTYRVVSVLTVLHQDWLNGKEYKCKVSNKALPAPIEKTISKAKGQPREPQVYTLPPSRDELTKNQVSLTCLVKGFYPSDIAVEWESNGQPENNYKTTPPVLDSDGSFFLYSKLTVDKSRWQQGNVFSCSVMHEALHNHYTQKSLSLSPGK
light: B1 light
notes: also called 1-77; copies: 2 + 2
As for B12, the Mean binding response was determined as 23 RU.

B13: anti-CD20 human IgG1 L234K/L235M/G236R (antibody)
heavy: B1 heavy with H238K, T239M
light: B1 light
notes: also called 1-85; copies: 2 + 2
For the molecule B13, the Mean binding response was found to be 23.9 RU.

B14: anti-CD20 human IgG1 L234K/L235Q/G236R (antibody)
heavy: B1 heavy with H238K, T239Q
light: B1 light
notes: also called 1-87; 2-22; copies: 2 + 2
In the case of B14, the Mean binding response came to 8.4 RU.

B15: anti-CD20 human IgG1 L234N/L235Q/G236R (antibody)
heavy: B1 heavy with H238N, T239Q
light: B1 light
notes: copies: 2 + 2
As for B15, the Mean binding response is 4.5 RU.

B16: anti-CD20 human IgG1 L234Q/L235E/G236R (antibody)
heavy: B1 heavy with H238Q, T239E
light: B1 light
notes: copies: 2 + 2
Take B16: the Mean binding response is 28.8 RU.

B17: anti-CD20 human IgG1 L234N/L235I/G236R (antibody)
heavy: B1 heavy with H238N, T239I
light: B1 light
notes: also called 1-97; copies: 2 + 2
For B17, the Mean binding response turned out to be 14.1 RU.

B18: anti-CD20 human IgG1 L234Q/L235N/G236R (antibody)
heavy: B1 heavy with H238Q, T239N
light: B1 light
notes: copies: 2 + 2
Consider B18, for which the Mean binding response was determined as 26.8 RU.

B19: anti-CD20 human IgG1 L234N/L235S/G236R (antibody)
heavy: B1 heavy with H238N, T239S
light: B1 light
notes: copies: 2 + 2
Regarding B19, the Mean binding response turned out to be 18.4 RU.

B20: anti-CD20 human IgG1 L234Q/L235M/G236R (antibody)
heavy: B1 heavy with H238Q, T239M
light: B1 light
notes: also called 1-115; copies: 2 + 2
As to B20, the Mean binding response was 38.4 RU.

B21: anti-CD20 human IgG1 L234N/L235E/G236R (antibody)
heavy: B1 heavy with H238N, T239E
light: B1 light
notes: also called 1-94; copies: 2 + 2
Regarding B21, the Mean binding response was determined as 16.4 RU.

B22: anti-CD20 human IgG1 L234K/L235I/G236R (antibody)
heavy: B1 heavy with H238K, T239I
light: B1 light
notes: also called 1-82; copies: 2 + 2
For the molecule B22, the Mean binding response is 30.9 RU.

B23: anti-CD20 human IgG1 L234N/L235D/G236R (antibody)
heavy: B1 heavy with H238N, T239D
light: B1 light
notes: also called 1-93; copies: 2 + 2
On to B23, for which the Mean binding response worked out at 13.4 RU.

B24: anti-CD20 human IgG1 L234N/L235G/G236R (antibody)
heavy: B1 heavy with H238N, T239G
light: B1 light
notes: also called 1-95; copies: 2 + 2
B24: the Mean binding response turned out to be 22.1 RU.

B25: anti-CD20 human IgG1 L234N/L235H/G236R (antibody)
heavy: B1 heavy with H238N, T239H
light: B1 light
notes: also called 1-96; copies: 2 + 2
On to B25, for which the Mean binding response was found to be 17.7 RU.

B26: anti-CD20 human IgG1 L234K/L235H/G236R (antibody)
heavy: B1 heavy with H238K, T239H
light: B1 light
notes: also called 1-81; copies: 2 + 2
B26: the Mean binding response amounted to 25.3 RU.

B27: anti-CD20 human IgG1 L234N/L235K/G236R (antibody)
heavy: B1 heavy with H238N, T239K
light: B1 light
notes: also called 1-98; copies: 2 + 2
For B27, the Mean binding response stood at 25 RU.

B28: anti-CD20 human IgG1 L234K/L235N/G236R (antibody)
heavy: B1 heavy with H238K, T239N
light: B1 light
notes: also called 1-86; copies: 2 + 2
Consider B28, for which the Mean binding response came to 24.8 RU.

B29: anti-CD20 human IgG1 L234Q/L235I/G236R (antibody)
heavy: B1 heavy with H238Q, T239I
light: B1 light
notes: copies: 2 + 2
Take B29: the Mean binding response was 34.7 RU.

B30: anti-CD20 human IgG1 L234K/L235E/G236R (antibody)
heavy: B1 heavy with H238K, T239E
light: B1 light
notes: also called 1-79; copies: 2 + 2
On to B30, for which the Mean binding response amounted to 29.9 RU.

B31: anti-CD20 human IgG1 L234N/L235V/G236R (antibody)
heavy: B1 heavy with H238N, T239V
light: B1 light
notes: copies: 2 + 2
Regarding B31, the Mean binding response worked out at 18.9 RU.

B32: anti-CD20 human IgG1 L234N/L235T/G236R (antibody)
heavy: B1 heavy with H238N
light: B1 light
notes: copies: 2 + 2
As for B32, the Mean binding response was determined as 8.6 RU.

B33: anti-CD20 human IgG1 L234N/L235N/G236R (antibody)
heavy: B1 heavy with H238N, T239N
light: B1 light
notes: copies: 2 + 2
With B33, the Mean binding response was 16.9 RU.

B34: anti-CD20 human IgG1 L234Q/L235V/G236R (antibody)
heavy: B1 heavy with H238Q, T239V
light: B1 light
notes: copies: 2 + 2
In the case of B34, the Mean binding response turned out to be 20.9 RU.

B35: anti-CD20 human IgG1 L234Q/L235H/G236R (antibody)
heavy: B1 heavy with H238Q, T239H
light: B1 light
notes: also called 2-29; copies: 2 + 2
Consider B35, for which the Mean binding response amounted to 10 RU.

B36: anti-CD20 human IgG1 L234R/G236R (antibody)
heavy: not shown
light: B1 light
notes: also called 2-41; copies: 2 + 2
As for B36, the Mean binding response worked out at 21.1 RU.
